According to patent US20060171941A1:

What was measured:
[1] = target: anti-V region antibodies to CC49 in the serum of patient one; assay: SPR competition for patient one serum anti-V region Abs
[2] = target: tumor-associated glycoprotein-72 on the cell surface of Jurkat cells; assay: flow cytometry, 0.5 ug Ab on Jurkat cells expressing TAG-72
[3] = target: bovine submaxillary mucin (TAG-72 positive) (bovine); assay: competition RIA against 125I-mCC49 on BSM; relative affinity constant, modified Scatchard
[4] = target: anti-V region antibodies to CC49 in the serum of patient one; assay: SPR competition, soluble competitor Ab against immobilized HuCC49 for patient one serum anti-V region Abs
[5] = target: anti-V region antibodies to CC49 in the serum of patient two; assay: SPR competition, soluble competitor Ab against immobilized HuCC49 for patient two serum anti-V region Abs

Binder | concentration required for 20% inhibition [1] [nM] | percent inhibition at 1000 nM [1] [%] | % of gated cells [2] [%] | mean fluorescence intensity [2] | Ka [3] [M⁻¹] | IC50 [4] [nM] | IC50 [5] [nM]
HuCC49V10 (antibody, V domains shown) VH: QVQLVQSGAEVVKPGASVKISCKASGYTFTDHAIHWVKQNPGQRLEWIGYFSPGNDDFKYSQKFQGKATLTADTSASTAYVELSSLRSEDTAVYFCTRSLNMAYWGQGTLVTVSS VL: DIVMSQSPDSLAVSLGERVTLNCKSSQSVLYSSNSKNYLAWYQQKPGQSPKLLIYWASTRESGVPDRFSGSGSGTDFTLTISSVQAEDVAVYYCQQYYSYPLSFGAGTKLELK | 80 | < 30 | 25.8 | 62.9 | 5.9e+07 | > 1000 | 7.7
humanized CC49 (CDR-grafted) (antibody, V domains shown) VH: QVQLVQSGAEVVKPGASVKISCKASGYTFTDHAIHWVKQNPGQRLEWIGYFSPGNDDFKYNERFKGKATLTADTSASTAYVELSSLRSEDTAVYFCTRSLNMAYWGQGTLVTVSS VL: DIVMSQSPDSLAVSLGERVTLNCKSSQSLLYSGNQKNYLAWYQQKPGQSPKLLIYWASARESGVPDRFSGSGSGTDFTLTISSVQAEDVAVYYCQQYYSYPLTFGAGTKLELK | 2 |  |  |  | 1.16e+08 | 6 | 2.2
